Laboratory results: the nanobody polyreactivity screen of Harvey et al. (2022)

Assay: yeast display, Sf9 membrane polyspecificity reagent, FACS + sequencing; frameworks hold sequencing errors
In short: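 Sorting gates, low and high (top ~1%), were placed on anti-HA fluorescence to track expression and on streptavidin fluorescence to track reagent binding. A clone's polyreactivity label is taken from the gate it came out of. The reagent was 10% biotinylated, detergent-solubilized Sf9 membrane, applied for 1 hour at 4 °C to galactose-induced yeast display cells.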

Sequence	polyreactivity (PSR sort gate)
QVQLVESGGGLVQAGGSLRLSCASSGFTFSVYAMGWYREAPGKERELVAAITWRGGSTYYADSVKGRFTISRDNAKNTVYLQMNSLKPEDSAVYYCAVLYPKYGKRYGYWGQGTQVTVSS	high polyreactivity
QVQLVESGGGLVQAGGSLRLSCASSGGTFPYYAMGWYRQAPGKERELVAAINYSCGSTYYADSVKGRFTISRDNAQYTVYLQMTSLKPEDTAVFYCAARYQFYRYDSTYSYWGQGTQVTVSS	high polyreactivity
QVQLVESGGGLVQAGGSLRLSCASSGIIFLTYAMGWYRQAPGKERELVAAINSTGSTNYADSVKGRFTISRDNAKYSVYLQMNSLKPDDTAVYYCAAEGLPYVRVFDFVSRYDYWGQGTQVTVSS	low polyreactivity
QVQLVESGGGLVQAGGSLRLSCASSGIIFNVYAMGWYRQAPGKERELVAAISSTSSTYADSVKGRFTISRDNAKNTVYLQMNSLKPEDTAVYYCNTDYSDGYPAFAYWGQGTQVTVSS	low polyreactivity
QVQLVESGGGLVQAGGSLRLSCASSGIIFVYYAMGWYRQAPGKERELVAVITESGVSTYYADSVKGRFTISRDNAKNTVYLQMNSLKPEDTAVYYCNRDYPYIWHKGARYWHENDYWGQGTQVTVSS	low polyreactivity
QVQLVESGGGLVQAGGSLRLSCASSGIIFYKYAMGWYRQAPGKERELVAVISRGGGSTYYADSVKGRFTISRDNAKNTVYLQMNSLKPEDTAVYYCAADPRVTRSYTYDYWVQGTQVTVSS	high polyreactivity
QVQLVESGGGLVQAGGSLRLSCASSGLIFAYYGMVWYRQAPGKEREFVAAISWRGGSTYYADSVKGRFTISRDNAKNTVYLQMNSLKPEDTAVYYCAARPLYGSARTNYGYWGQGTQVSVSS	high polyreactivity
QVQLVESGGGLVQAGGSLRLSCASSGLIFVVYAMGWYRQAPGKERELVAAISTSGDRTYYADSVKGRFTISRDNAKNTVYLLMNSLKPEDTAVYYCAAGRRKVPYCREYYYWGQVTQVTVSS	high polyreactivity
QVQLVESGGGLVQAGGSLRLSCASSGLIFYDNMGWYRQAPGKETELVAAISSSGGSTSYADSVKGRFTISRDNAKNTVYLQMNSLKPEDTAVYYCAADSYPAYLGFFGFDYWGQGTQVTVSS	low polyreactivity
QVQLVESGGGLVQAGGSLRLSCASSGLTFAAYAMGWSRQAPGKERELVAAISRRGGSTYYADSVKGRFTISRDNAKNTVYLQMNSLKPEDTAVYYCAAENEVYWYDVEYWGQGTQVTVSS	high polyreactivity
QVQLVESGGGLVQAGGSLRLSCASSGLTFYPYAMGWYRQAPGKERELVAAISKSGGRTSYADSVKGRFTISRDNAKNTVYLQMNSLKPEDTAVYYCNARSGTFGYSTYGYWGQGTQETVSS	high polyreactivity
QVQLVESGGGLVQAGGSLRLSCASSGNTFVAYAMGWYRQAPGKERELVAGITRGGTTYYADSVKGRFTISRDNAKNTVYLQMNSLKPEDTAVYYCAARLGYRYNYWGQGTQVTVSS	high polyreactivity
QVQLVESGGGLVQAGGSLRLSCASSGRIFGIYAMGWYRQAPGKESELVARITGGGSTNYADSVKGRFTISRDNAKNTVYLQMNSLKPEDTAVYYCAATVRRIVGNITRYDYWGQGTQVTVSS	low polyreactivity
QVQLVESGGGLVQAGGSLRLSCASSGRIFGLYAMGWYRHAPGKERELVAAITLSGDGTDYADSVKGRFTISRDNAKNTVYLQMNSLKPEDTAVYYCAKVGQYWWNMDYWGQGTQVTVSS	low polyreactivity
QVQLVESGGGLVQAGGSLRLSCASSGRIFGVYAMGWYRQAPGKERELVAAITRGASTYYADSVKGRFTISRDNAKNTVYLQMNSLKPEDTAVYYCAVSQHRGIYRKYDYWGQGTQVTVSS	high polyreactivity
QVQLVESGGGLVQAGGSLRLSCASSGRIFNGNTMGWYRQAPGKERELVAGITGSSGSTYYADSVKGRFTISRDNANNSVYLPMNSLKPEDTGVYYCAAGRRYRCVGYGYWGQGTQVTVSS	high polyreactivity
QVQLVESGGGLVQAGGSLRLSCASSGRIFQFYAMGWYRQEPGKERELVASISWSGGRTYYADSVKGRFTISRDNAKNTVYLQMNSLNPEDTAVYYCAADYYDYYYWGQGTQVTVSS	high polyreactivity
QVQLVESGGGLVQAGGSLRLSCASSGRIFRGYAKGGYRQAPGKERELVADISSGASTNYADSVKGRFTISRDNAKNSVYLQMNRLKPEDTAVYYCAASIYAALIGGPGYDYWGQGTQVTVSS	low polyreactivity
QVQLVESGGGLVQAGGSLRLSCASSGRIFRSYAMGWYRQAPGKERELVAAISSGGGSTYYADSVKGRFTISRDNAKNTVYLQMNSLKPEDTAVYYCNTDFYYDDVSQAHDYWGQGTQVTVSS	high polyreactivity
QVQLVESGGGLVQAGGSLRLSCASSGRIFYTYAMGWYRQAPGKERELVAAIRYSGGSTYYADSVKGRFTISRDNAMNTVYLQINSLKPEDTAVYYCAATVYTKQFDYWGQGTQVTVSS	high polyreactivity
QVQLVESGGGLVQAGGSLRLSCASSGRIIRRNAMGWYRQAPGKERELVASISQGGSTYYADSVKGRFTISRDNAKNTVYLQMNSLKPEDTAVYYCAATLSYYVGVRYDYWGQGTQVTVSS	high polyreactivity
QVQLVESGGGLVQAGGSLRLSCASSGRTFAWYAMGWYRQAPGKERELVAAISNVGSTYYADSVKGRFTISRDNAKNTVYLQMNSLKPEDTAVYYCNADAVSTDGREYWGQGTQVTVSS	low polyreactivity

Sequence	polyreactivity (PSR sort gate)
QVQLVESGGGLVQAGGSLRLSCASSGRTFQYYAMGWYRQAPGKERELVAAISSRGGSTYYADSVKGRFTISRDNAKNTVYLQMNSLKPEDTAVYYCAAYVLPRQRVRSDYWGQGTQVTVSS	high polyreactivity
QVQLVESGGGLVQAGGSLRLSCASSGRTFRYNAKGWYRQAPGKERELVAAISWSGGGTYYSDSVKGRFTISRDNAKNTVYLQMNSLKPEDTAVYYCAAEEQIPLTNNSKYYYWGQGTQVTVSS	low polyreactivity
QVQLVESGGGLVQAGGSLRLSCASSGRTFYLNAMGWYRQAPGKERELVAAISKRGGSTYYADSVKGRFTISRDNAKNTVYLQMNSLKPEDTAVYYCAKGFSFYSPRYDYWGQGTQVTVSS	high polyreactivity
QVQLVESGGGLVQAGGSLRLSCASSGRTLRRYAMGWYRQAPGKERELVAAISRSGSSTYADSVKGRFTISRDNAKNTVYLQMNSLKPEDTAVYYCNAYQPRYVYWGQGTQVTVSS	high polyreactivity
QVQLVESGGGLVQAGGSLRLSCASSGRTYTLNAMGWYRQAPGKERELVAAIRRGGSTYYADSVKGRFTISRDNAKNTVYLQMNSLKPEDTAVYYCAARGTGYHGYGYWGQGTQVTVSS	high polyreactivity
QVQLVESGGGLVQAGGSLRLSCASSGSIFQYNAMGWYRQAPGKERELVAAINGGGSTYYADSVRGRFTISRDNAKNTVYLQMNSLKPEDTAVYYCAARHGESHYDYWGQGTQVTVSS	low polyreactivity
QVQLVESGGGLVQAGGSLRLSCASSGSIFVTYTMGWYRQAPGKERELVATISGGSSTYADSVKGRFTISRDNAKNTVYLQMNSLKPEDTAVYYCNAVWYFKPPPLYYIPYRQYDYWGQGTQVTVSS	low polyreactivity
QVQLVESGGGLVQAGGSLRLSCASSGSIFYVNTMGWYRQAPGKERELVATISVSGGSTNYADSVKGRFTISRDNAKNTVYFQMNSLKPEDTAVYYCAEAYLRYYDGPYDYWGQGTQVTVSS	low polyreactivity
QVQLVESGGGLVQAGGSLRLSCASSGSIGYYAMGWYRQAPGKERELVAAIDWSGGDTYYADSVKGRFTISRDNAKNTVYLQMNSLKPEDTAVYYCAADAGRYLPDCTYDYWGQGTQVTVSS	low polyreactivity
QVQLVESGGGLVQAGGSLRLSCASSGSILYVYAMGWYRQAPGKERELVAAISTSGVSTYYADSVKGRFTISRDNAKNTVYLQMNSLKPEDTAVYYCAATVSRGFYSWWYDYWGQGTQVTVSS	low polyreactivity
QVQLVESGGGLVQAGGSLRLSCASSGSTFAPNAMGWYSQAPGKEREFVAAITYRGSSTYYADSVKGRFTISRDNAKNTVYLQMNSLKPEDTAVYYCAADYVEYKVRSYDYWGQGTQVTVSS	low polyreactivity
QVQLVESGGGLVQAGGSLRLSCASSGSTFSSYAMGRYRQAPGKERELVAAITRGGSTNYADSVKGRFTISRDNAKNTVYLQMNSLKPEYTAVYYCAADGPIVGTMDYWGQGTQVTVSS	high polyreactivity
QVQLVESGGGLVQAGGSLRLSCASSGSTFTGNAMGWYRQAPGKERELVAAISYRGVSTSYADSVKGRFTISRDNAKNTVYLQMNSLKPEDTAVYYCAKRRSLVRSIPFDSWGQGTQVTVSS	low polyreactivity
QVQLVESGGGLVQAGGSLRLSCASSGSTFWFYAMGWYRQAPGKERELVAAITRSAGSTYYADSVKGRFTISRDNAKNTVYLQMNSLKPEGTAVYYCAAQRESLYGGFDYWGQGTQVTVSS	low polyreactivity
QVQLVESGGGLVQAGGSLRLSCASSGSTFYNNALGWYRQAPGKERELVAAISNVSTYYADSVKGRFTISRDNAKNTVYLQLISLKPEDTAVYYCAARGLLWYYSWRYYFWGQGTQVTVSS	low polyreactivity
QVQLVESGGGLVQAGGSLRLSCASSGSTFYPNAMGWYRQAPGKERELVAAISRSGGSTYYADSVKGRFTISRDNAKNTVYLQMNSLKPEDTGVYYCAADGRSPSRYDYWGQGTQVTVSS	low polyreactivity
QVQLVESGGGLVQAGGSLRLSCASSGSTFYRYAMGWYRQAPGKERELVARINTGGSTSYAYSVKGRFTISRDNAKNTVYLQKNSLKPVDTAVYYCAASSRYAVFGRYYYWGQGTQVTVSS	high polyreactivity
QVQLVESGGGLVQAGGSLRLSCASSGSTFYSYVMGWYRQAPGKERELVAVISNDGSTNYADSVKGRFTISRDNAKNSVYLQMNSLKPEDTAVYYCDALKFVRAYRYYYWGQGTQVTVSS	low polyreactivity
QVQLVESGGGLVQAGGSLRLSCASSGSTFYTNAMGWYRQAPGKERELVAGISSGGSTYYADSVKARFTISRDNAKNTVYLQINSLKPEDTAVYYCAAVERTRYWEFYYWGQGTQVIVSS	high polyreactivity
QVQLVESGGGLVQAGGSLRLSCASYGYTFFNYAKGWYRQAPGKERELVAAITTGGSTYYADSVKGRFTISRDNAKNTVYLQMNSLKPEDTAVYYCPFDYWGQGTQVTVSS	high polyreactivity
QVQLVESGGGLVQAGGSLRLSCATSGFIFSLYAMGWYRQAPGKERELVAAINWNGGRTYYADSVKGRFTISRDNAKNTVYLQMDSLKPEDTAVYYCATRSGSYSYPAVGGWGLGYWGQGTQVTVSS	high polyreactivity
